The source of these data is article PMC4344348, “Quantitative Analysis of Ligand-EGFR Interactions: A Platform for Screening Targeting Molecules” (PLoS ONE, 2015).

The assay concerns the target T1, Epidermal growth factor receptor (UniProt P00533 25-645).
T1 construct: Epidermal growth factor receptor (EGFR), bought from Sigma-Aldrich; Coupled by its amines to the dextran of a CM5 chip (about 12,000 RU) for both SPR and AFM; also called EGFR; source: bought: Sigma-Aldrich
The experiment in a line: SPR; Biacore X; EGFR amine-coupled to a CM5 chip, ligands flowed over; room temperature; running buffer PBS; flow 10 ul/min; regeneration 50 mM NaOH; channel without EGFR as control; EGF 0.25-4 uM, GE11 10-160 uM; KD from BIAEvaluation software. Conditions: both partners purified.

B1: Peptide GE11 (peptide)
peptide: YHWYGYTPQNVI
notes: In solution for SPR; for AFM coupled to succinimide-modified silicon nitride tips; source: synthetic peptide, custom synthesized by Millipore
With B1, the affinity, expressed as Kd, was 459 µM.

For orientation: Kd means a measure of binding affinity in units of concentration. Lower therefore signals tighter binding.
